The target in test [1] is T1, recombinant RNase H2 complex (hRNASEH2BCA) (human, UniProt Q5TBB1 1-312; Q8TDP1 1-164; O75792 1-299).
T1 construct: RNASEH2B, human, non-catalytic accessory subunit of RNase H2; RNASEH2C, human, non-catalytic accessory subunit of RNase H2; RNASEH2A, human, catalytic subunit of RNase H2; Heterotrimer formed beforehand by co-expression; also called RH2; source: E. coli, purified (GST pulldown, then AKTA FPLC); copies: + +
T1 sequence (looked up) 1: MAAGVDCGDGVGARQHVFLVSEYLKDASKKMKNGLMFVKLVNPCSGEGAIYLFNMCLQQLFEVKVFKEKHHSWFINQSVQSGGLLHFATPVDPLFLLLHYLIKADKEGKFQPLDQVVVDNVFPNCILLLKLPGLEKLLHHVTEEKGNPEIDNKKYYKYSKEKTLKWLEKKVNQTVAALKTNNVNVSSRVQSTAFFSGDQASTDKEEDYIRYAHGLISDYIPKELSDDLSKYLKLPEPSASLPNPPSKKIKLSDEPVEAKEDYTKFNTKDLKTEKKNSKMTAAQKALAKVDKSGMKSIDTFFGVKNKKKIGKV
T1 sequence (looked up) 2: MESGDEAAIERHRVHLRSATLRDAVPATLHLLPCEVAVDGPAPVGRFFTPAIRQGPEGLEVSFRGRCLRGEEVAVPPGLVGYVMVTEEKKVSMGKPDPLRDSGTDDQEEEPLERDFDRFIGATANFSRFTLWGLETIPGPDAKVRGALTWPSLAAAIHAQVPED
T1 sequence (looked up) 3: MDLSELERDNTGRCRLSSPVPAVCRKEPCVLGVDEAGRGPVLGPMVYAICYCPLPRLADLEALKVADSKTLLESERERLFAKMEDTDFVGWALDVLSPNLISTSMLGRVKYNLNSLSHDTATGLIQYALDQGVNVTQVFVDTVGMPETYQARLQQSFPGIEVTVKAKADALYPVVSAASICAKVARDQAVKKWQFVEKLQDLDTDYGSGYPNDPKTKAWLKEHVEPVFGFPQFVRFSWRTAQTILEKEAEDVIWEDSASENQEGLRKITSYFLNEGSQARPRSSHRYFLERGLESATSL
In words: co-IP; recombinant RNase H2 complex and RTF2 (0.5, 1, 2, 4 pmol) from E. coli mixed 2 hr at 4 °C in 20 mM HEPES pH 7.5, 1 mM DTT, 0.01% NP-40, 5% glycerol, 0.1 mg/mL BSA, 50 mM NaCl, benzonase; NaCl raised to 150 mM; Dynabeads 1 hr at 4 °C; immunoblot. Particulars: both partners purified. Background: In western blotting, separated proteins are transferred to a membrane and probed.

In test [2] the target is T1, recombinant RNase H2 complex …. The test can be described thus: co-IP; recombinant GFP-tagged RTF2 (0.5, 1, 2, 4 pmol) and RNase H2 complex from E. coli, immunoprecipitation as for untagged RTF2 (20 mM HEPES pH 7.5, 150 mM NaCl final, benzonase, Dynabeads); immunoblot. Particulars: both partners purified.

B1: recombinant hRTF2 (natural protein, human, UniProt Q9BY42 1-306, looked up)
chain: MGCDGGTIPKRHELVKGPKKVEKVDKDAELVAQWNYCTLSQEILRRPIVACELGRLYNKDAVIEFLLDKSAEKALGKAASHIKSIKNVTELKLSDNPAWEGDKGNTKGDKHDDLQRARFICPVVGLEMNGRHRFCFLRCCGCVFSERALKEIKAEVCHTCGAAFQEDDVIMLNGTKEDVDVLKTRMEERRLRAKLEKKTKKPKAAESVSKPDVSEEAPGPSKVKTGKPEEASLDSREKKTNLAPKSTAMNESSSGKAGKPPCGATKRSIADSEESEAYKSLFTTHSSAKRSKEESAHWVTHTSYCF
notes: Replication Termination Factor 2 (RTF2), human (hRTF2); source: E. coli, purified (IMAC, then AKTA FPLC)
As to B1, the binding result in test [1] is recorded as “binds”.

B2: recombinant GFP-tagged RTF2 (natural protein, human, UniProt Q9BY42 1-306, looked up)
chain: MGCDGGTIPKRHELVKGPKKVEKVDKDAELVAQWNYCTLSQEILRRPIVACELGRLYNKDAVIEFLLDKSAEKALGKAASHIKSIKNVTELKLSDNPAWEGDKGNTKGDKHDDLQRARFICPVVGLEMNGRHRFCFLRCCGCVFSERALKEIKAEVCHTCGAAFQEDDVIMLNGTKEDVDVLKTRMEERRLRAKLEKKTKKPKAAESVSKPDVSEEAPGPSKVKTGKPEEASLDSREKKTNLAPKSTAMNESSSGKAGKPPCGATKRSIADSEESEAYKSLFTTHSSAKRSKEESAHWVTHTSYCF
notes: Replication Termination Factor 2 (RTF2), human (hRTF2 in the methods on recombinant proteins); also called GFP-RTF2; source: E. coli, purified
Consider B2, for which the binding result in test [2] is reported as “binds”.

The values above are taken from publication PMC10908796, “RTF2 controls replication repriming and ribonucleotide excision at the replisome” (Nature Communications, 2024).
